Consider four molecules from US20170362329A1 (PELICAN THERAPEUTICS, published 2017).

Read-outs that look alike come from different tables or passages of the source.

The target in assay [1] is human TNFRSF25 (expressed on P815 cells) (human) (UniProt Q93038). As to the kind of experiment: cell-based or functional assay.
Assay [2] deals with human TNFRSF25 (expressed on P815 cells) (human), Q93038. The experiment in a line: cell-based or functional assay.
Another assay deals with T1, WBP330.hProl.ECD.hF (human, UniProt Q93038 25-199).
T1 construct: extracellular domain; also called human TNFRSF25 (SPR ligand)
T1 sequence (looked up): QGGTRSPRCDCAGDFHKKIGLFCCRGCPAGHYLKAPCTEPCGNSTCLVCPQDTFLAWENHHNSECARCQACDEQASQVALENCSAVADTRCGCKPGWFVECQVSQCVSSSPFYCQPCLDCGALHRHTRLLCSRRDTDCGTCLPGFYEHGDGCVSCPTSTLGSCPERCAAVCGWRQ
As to the kind of experiment: SPR (ProteOn), TNFRSF25 ECD fusion as ligand, antibody as analyte, bivalent analyte model. As to the method: Affinity of the indicated humanized TNFRSF25 antibodies was determined by surface plasmon resonance (SPR) using the ProteOn method (FIG. 7 and TABLE 3).

Assay [3] concerns the target human TNFRSF25 (expressed on P815 cells) (human) (UniProt Q93038). As to the kind of experiment: flow cytometry on P815 cells expressing human TNFRSF25. (Flow cytometry measures light scatter and fluorescence of single cells or particles in a stream.)
Assay [4] has the same target. As to the kind of experiment: cell-based or functional assay. This is another data set of the same source.
The target is the same in assay [5]. As to the kind of experiment: flow cytometry on P815 cells expressing human TNFRSF25 (mean fluorescence intensity).
A further assay deals with T2, human TNFRSF25-Fc (human, UniProt Q93038 25-199, limits assumed).
T2 construct: also called human TNFRSF25 fusion protein; not shown: Fc part
T2 sequence (looked up): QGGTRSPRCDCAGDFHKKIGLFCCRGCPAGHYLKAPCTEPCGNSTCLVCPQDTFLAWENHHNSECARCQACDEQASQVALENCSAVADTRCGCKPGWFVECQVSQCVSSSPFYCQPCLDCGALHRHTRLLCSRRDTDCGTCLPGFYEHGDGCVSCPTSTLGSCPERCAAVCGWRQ
As to the kind of experiment: ELISA, binding of PTX-25 to human TNFRSF25-Fc, OD 450 nm. For orientation: In an ELISA, binding on a coated surface is turned into a signal by an enzyme label.

With “hTL1A-hFc chimera (from UniProt O95150 72-251) (Fc fusion)”, in assay [1], the EC50 of induced caspase activity was 0.283 µg/mL.

B1: WBP330.cAb1.hIgG1 (35783) (antibody, V domains shown)
VH: EVQLVESGGGLSQPGNSLQLSCEASGFTFSNHDLNWVRQAPGKGLEWVAYISSASGLISYADAVRGRFTISRDNAKNSLFLQMNNLKSEDTAMYYCARDPPYSGLYALDFWGQGTQVTVSS
VL: QPVLTQSPSASASLSGSVKLTCTLSSELSSYTIVWYQQRPDKAPKYVMYLKSDGSHSKGDGIPDRFSGSSSGAHRYLSISNVQSEDDATYFCGAGYTLAGQYGWVFGSGTKVTVL
notes: also called cAb1 (35783); chimeric antibody
For orientation: koff means the first-order rate constant of dissociation. By kon is commonly meant a measure of how fast the partners come together. A low value points to slower complex formation. In assay [2], B1 displayed an EC50 (nM), caspase activation in P815 cells expressing human TNFRSF25 of 71.4 nM and an EC50 of induced caspase activity of 0.121 µg/mL. In the assay with WBP330.hProl.ECD.hF, this molecule yielded a Kd of 58.1 nM, a koff of 0.00576 s⁻¹ and a kon of 99000 M⁻¹ s⁻¹.

B2: WBP330BMK1 (antibody, V domains shown)
VH: EVQLVESGGGLSQPGNSLQLSCEASGFTFSNHDLNWVRQAPGKGLEWVAYISSASGLISYADAVRGRFTISRDNAKNSLFLQMNNLKSEDTAMYYCARDPPYSGLYALDFWGQGTQVTVSS
VL: QPVLTQSPSASASLSGSVKLTCTLSSELSSYTIVWYQQRPDKAPKYVMYLKSDGSHSKGDGIPDRFSGSSSGAHRYLSISNVQSEDDATYFCGAGYTLAGQYGWVFGSGTKVTVL
With B2, the Kd in assay [3] worked out at 73.5 nM. In assay [4], this molecule showed an EC50 (nM), caspase activation in P815 cells expressing human TNFRSF25 of 19.6 nM and an EC50 of induced caspase activity of 0.0192 µg/mL. Moreover, the Bmax in assay [5] came out at 246. Besides, in the assay with WBP330.hProl.ECD.hF, the Kd amounted to 254 nM, the koff came out at 0.0252 s⁻¹ and the kon was 99000 M⁻¹ s⁻¹.

B3: PTX-25 (human TNFRSF25-specific monoclonal antibody, pre-humanized parental) (antibody, V domains shown)
VH: EVQLVESGGGLSQPGNSLQLSCEASGFTFSNHDLNWVRQAPGKGLEWVAYISSASGLISYADAVRGRFTISRDNAKNSLFLQMNNLKSEDTAMYYCARDPPYSGLYALDFWGQGTQVTVSS
VL: QPVLTQSPSASASLSGSVKLTCTLSSELSSYTIVWYQQRPDKAPKYVMYLKSDGSHSKGDGIPDRFSGSSSGAHRYLSISNVQSEDDATYFCGAGYTLAGQYGWVFGSGTKVTVL
notes: also called Pre-humanized Parental PTX-25; human TNFRSF25-specific mAb
The term EC50 (read off the curve) denotes the concentration that produces a half-maximal response. A lower EC50 (read off the curve) goes with a more potent agent. By IC50 is commonly meant the point on the concentration scale where inhibition reaches its midpoint. Lower therefore signals higher potency. On to B3, for which, in the assay with human TNFRSF25-Fc, the “EC50 (read off the curve)” value was ~0.04 µg/mL and the IC50 came out at 5.17 nM.
